Data published in PMC10033409, “Autoregulation of GPCR signalling through the third intracellular loop” (Nature, 2023).

Biological target: T1, β2 adrenergic receptor (β2AR), wild type, receptor part of the β2AR–G peptide SPASM FRET sensor (human, UniProt P07550)
T1 construct: β2 adrenergic receptor (β2AR), human; One polypeptide: Receptor-4×GSG-mCitrine-4×GSG-10 nm ER/K linker-4×GSG-mCerulean-4×GSG-G peptide; the receptor and the G peptide (m5 or m6) are tethered on the same chain; also called WT; wild-type β2AR–Gs peptide sensor; source: HEK 293T Flp-In T-Rex cells, transfected, crude membrane extracts; not shown: mCitrine, C-terminal, kept
Assay: FRET or BRET; ∆FRET assay of β2AR SPASM sensors in membrane extracts; purified Nb6B9 added to quench the agonist-induced change in FRET
Conditions: one partner purified

binding result: binds
B1: Nanobody Nb6B9 (Nb6B9-2×GSG-SNAP tag-Flag-2×GSG-6×His) (VHH)
VHH: QVQLQESGGGLVQAGGSLRLSCAASGSIFALNIMGWYRQAPGKQRELVAAIHSGGTTNYANSVKGRFTISRDNAANTVYLQMNSLKPEDTAVYYCNVKDFGAIIYDYDYWGQGTQVTVSS
notes: Cloned into a pBiex1 backbone; source: E. coli JM109, purified (Ni-NTA, Superdex 200 gel filtration)
